Experiment in all cases: ELISA, coated CNTN4 domain sample, anti-human IgG Fc-HRP
(In general: In an ELISA, binding on a coated surface is turned into a signal by an enzyme label.)

The target in experiment [1] is T1, Human CNTN4 domain sample D1-4 (human, UniProt Q8IWV2 19-400, limits assumed).
T1 construct: domain: Domain 1 to Domain 4
T1 sequence (looked up): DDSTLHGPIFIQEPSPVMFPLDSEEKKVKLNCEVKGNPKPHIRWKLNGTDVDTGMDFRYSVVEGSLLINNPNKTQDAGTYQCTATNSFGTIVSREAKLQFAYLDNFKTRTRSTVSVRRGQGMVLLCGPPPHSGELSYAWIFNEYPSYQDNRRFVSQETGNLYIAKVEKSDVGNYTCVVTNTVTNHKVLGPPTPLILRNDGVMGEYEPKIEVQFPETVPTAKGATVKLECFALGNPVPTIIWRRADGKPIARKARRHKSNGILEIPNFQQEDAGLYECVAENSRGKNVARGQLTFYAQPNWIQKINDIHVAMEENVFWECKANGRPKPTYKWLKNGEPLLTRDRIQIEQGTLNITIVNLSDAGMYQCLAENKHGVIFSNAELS
As to the method:
(§1) 50 μL of the diluted secondary antibody (Anti-human IgG Fc-HRP) was distributed to each well. The wells were sealed with sealing tape and incubated at 37° C. for 1 hour. The wells were washed tree times after Sealing tape was removed.
(§2) 50 μL of ABTs were distributed in each well. The wells were incubated at room temperature for 30 minutes. The absorbance was detected at 405 nm by using Microplate reader.

In experiment [2] the target is T2, Human CNTN4 domain sample D1-5 (human, UniProt Q8IWV2 19-493, limits assumed).
T2 construct: domain: Domain 1 to Domain 5
T2 sequence (looked up): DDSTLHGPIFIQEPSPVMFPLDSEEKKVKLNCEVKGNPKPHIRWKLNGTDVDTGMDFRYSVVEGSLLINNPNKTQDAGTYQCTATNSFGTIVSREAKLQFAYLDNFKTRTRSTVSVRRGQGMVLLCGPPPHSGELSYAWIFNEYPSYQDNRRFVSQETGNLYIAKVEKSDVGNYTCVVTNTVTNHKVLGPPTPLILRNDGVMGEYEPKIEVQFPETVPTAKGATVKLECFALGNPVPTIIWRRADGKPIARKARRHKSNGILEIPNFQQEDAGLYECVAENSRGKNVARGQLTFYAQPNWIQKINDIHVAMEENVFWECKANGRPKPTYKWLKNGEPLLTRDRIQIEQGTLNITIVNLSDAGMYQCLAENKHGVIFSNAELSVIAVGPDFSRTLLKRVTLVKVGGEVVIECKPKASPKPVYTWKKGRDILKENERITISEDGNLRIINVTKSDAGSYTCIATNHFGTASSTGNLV
How it is done: as §1, §2

In experiment [3] the target is T3, Human CNTN4 domain sample D1-7 (human, UniProt Q8IWV2 19-697, limits assumed).
T3 construct: domain: Domain 1 to Domain 7
T3 sequence (looked up): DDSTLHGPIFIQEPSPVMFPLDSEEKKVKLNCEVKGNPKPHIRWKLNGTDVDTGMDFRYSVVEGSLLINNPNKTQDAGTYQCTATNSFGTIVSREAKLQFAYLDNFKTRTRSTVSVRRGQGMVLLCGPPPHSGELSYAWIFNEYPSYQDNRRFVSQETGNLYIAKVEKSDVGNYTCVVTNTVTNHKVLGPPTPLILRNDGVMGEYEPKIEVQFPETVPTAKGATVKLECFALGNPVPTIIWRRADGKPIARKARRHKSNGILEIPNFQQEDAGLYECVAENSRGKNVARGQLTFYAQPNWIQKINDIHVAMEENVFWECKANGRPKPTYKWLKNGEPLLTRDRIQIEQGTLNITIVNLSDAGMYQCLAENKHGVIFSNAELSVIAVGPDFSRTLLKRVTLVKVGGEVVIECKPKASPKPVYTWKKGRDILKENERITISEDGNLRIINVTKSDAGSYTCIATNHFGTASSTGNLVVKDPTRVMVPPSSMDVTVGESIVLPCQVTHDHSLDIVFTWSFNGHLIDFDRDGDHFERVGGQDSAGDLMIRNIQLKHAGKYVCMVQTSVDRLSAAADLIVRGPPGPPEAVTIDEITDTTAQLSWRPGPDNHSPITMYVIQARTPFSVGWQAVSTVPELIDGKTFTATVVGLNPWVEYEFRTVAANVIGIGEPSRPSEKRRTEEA
How it is done:
as §1, §2

For experiment [4], the target named is T4, Human CNTN4 domain sample D1-6 (human, UniProt Q8IWV2 19-586, limits assumed).
T4 construct: domain: Domain 1 to Domain 6
T4 sequence (looked up): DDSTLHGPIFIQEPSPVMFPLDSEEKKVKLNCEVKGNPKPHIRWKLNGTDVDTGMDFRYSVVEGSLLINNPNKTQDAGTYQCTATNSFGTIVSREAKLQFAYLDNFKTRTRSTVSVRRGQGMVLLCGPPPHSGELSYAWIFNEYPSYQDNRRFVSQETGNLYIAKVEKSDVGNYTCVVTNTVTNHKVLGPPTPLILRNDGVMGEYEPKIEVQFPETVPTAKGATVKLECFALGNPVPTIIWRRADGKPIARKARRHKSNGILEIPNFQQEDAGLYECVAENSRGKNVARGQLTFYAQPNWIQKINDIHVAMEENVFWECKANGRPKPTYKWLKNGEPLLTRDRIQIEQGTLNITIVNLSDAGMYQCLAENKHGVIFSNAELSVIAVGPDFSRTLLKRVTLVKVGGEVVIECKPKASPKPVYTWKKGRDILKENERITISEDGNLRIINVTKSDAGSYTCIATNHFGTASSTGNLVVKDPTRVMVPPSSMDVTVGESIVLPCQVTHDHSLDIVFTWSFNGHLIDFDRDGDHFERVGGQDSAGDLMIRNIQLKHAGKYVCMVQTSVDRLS
How it is done:
as §1, §2

The target in experiment [5] is T5, Human CNTN4 domain sample D1-9 (human, UniProt Q8IWV2 19-899, limits assumed).
T5 construct: domain: Domain 1 to Domain 9
T5 sequence (looked up): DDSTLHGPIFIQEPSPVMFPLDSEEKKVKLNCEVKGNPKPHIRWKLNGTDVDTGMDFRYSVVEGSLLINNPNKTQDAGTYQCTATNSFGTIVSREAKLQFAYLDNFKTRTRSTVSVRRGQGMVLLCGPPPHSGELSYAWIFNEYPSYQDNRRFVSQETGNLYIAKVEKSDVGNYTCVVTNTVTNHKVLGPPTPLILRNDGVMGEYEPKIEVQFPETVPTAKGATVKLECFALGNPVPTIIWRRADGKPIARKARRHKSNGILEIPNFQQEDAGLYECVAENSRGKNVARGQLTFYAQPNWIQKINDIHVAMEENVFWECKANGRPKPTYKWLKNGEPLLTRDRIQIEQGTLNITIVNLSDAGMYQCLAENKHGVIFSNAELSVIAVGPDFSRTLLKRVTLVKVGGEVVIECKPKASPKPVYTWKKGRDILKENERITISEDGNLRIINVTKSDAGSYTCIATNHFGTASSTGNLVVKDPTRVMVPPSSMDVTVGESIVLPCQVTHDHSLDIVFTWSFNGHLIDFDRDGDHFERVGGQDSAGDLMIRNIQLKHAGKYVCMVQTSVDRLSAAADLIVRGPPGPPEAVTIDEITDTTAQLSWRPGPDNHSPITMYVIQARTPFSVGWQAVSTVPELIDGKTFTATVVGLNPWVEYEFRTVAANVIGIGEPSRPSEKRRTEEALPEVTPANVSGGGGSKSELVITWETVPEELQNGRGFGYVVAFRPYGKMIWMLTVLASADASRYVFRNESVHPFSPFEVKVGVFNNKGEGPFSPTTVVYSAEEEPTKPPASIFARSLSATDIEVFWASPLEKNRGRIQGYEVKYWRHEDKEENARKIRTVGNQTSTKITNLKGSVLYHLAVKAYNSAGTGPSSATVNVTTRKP
As to the method: as §1, §2

Experiment [6] deals with T6, Human CNTN4 domain sample D1-8 (human, UniProt Q8IWV2 19-799, limits assumed).
T6 construct: domain: Domain 1 to Domain 8
T6 sequence (looked up): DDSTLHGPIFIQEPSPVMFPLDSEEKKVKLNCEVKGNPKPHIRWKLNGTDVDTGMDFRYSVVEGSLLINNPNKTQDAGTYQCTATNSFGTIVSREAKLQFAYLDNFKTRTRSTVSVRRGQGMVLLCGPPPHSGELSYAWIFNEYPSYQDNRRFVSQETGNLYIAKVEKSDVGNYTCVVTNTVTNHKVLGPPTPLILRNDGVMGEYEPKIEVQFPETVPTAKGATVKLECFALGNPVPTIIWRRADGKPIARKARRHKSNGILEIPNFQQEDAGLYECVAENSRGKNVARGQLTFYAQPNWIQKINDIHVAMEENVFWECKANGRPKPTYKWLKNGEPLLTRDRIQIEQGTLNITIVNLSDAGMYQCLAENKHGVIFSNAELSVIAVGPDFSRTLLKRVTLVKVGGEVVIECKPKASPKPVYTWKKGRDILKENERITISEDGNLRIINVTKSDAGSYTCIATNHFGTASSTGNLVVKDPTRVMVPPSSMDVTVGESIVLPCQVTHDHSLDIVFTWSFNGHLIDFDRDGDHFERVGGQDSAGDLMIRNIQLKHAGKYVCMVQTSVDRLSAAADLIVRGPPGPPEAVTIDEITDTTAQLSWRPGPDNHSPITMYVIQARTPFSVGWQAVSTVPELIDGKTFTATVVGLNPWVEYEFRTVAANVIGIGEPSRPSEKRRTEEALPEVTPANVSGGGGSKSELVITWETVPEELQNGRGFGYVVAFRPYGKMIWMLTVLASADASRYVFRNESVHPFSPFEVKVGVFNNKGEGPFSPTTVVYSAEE
How it is done: as §1, §2

For experiment [7], the target named is T7, Human CNTN4 domain sample Full (Domain 1 to Domain 10) (human, UniProt Q8IWV2 19-1000, limits assumed).
T7 construct: domain: Domain 1 to Domain 10 (Ig1 to Ig6 and FN1 to FN4)
T7 sequence (looked up): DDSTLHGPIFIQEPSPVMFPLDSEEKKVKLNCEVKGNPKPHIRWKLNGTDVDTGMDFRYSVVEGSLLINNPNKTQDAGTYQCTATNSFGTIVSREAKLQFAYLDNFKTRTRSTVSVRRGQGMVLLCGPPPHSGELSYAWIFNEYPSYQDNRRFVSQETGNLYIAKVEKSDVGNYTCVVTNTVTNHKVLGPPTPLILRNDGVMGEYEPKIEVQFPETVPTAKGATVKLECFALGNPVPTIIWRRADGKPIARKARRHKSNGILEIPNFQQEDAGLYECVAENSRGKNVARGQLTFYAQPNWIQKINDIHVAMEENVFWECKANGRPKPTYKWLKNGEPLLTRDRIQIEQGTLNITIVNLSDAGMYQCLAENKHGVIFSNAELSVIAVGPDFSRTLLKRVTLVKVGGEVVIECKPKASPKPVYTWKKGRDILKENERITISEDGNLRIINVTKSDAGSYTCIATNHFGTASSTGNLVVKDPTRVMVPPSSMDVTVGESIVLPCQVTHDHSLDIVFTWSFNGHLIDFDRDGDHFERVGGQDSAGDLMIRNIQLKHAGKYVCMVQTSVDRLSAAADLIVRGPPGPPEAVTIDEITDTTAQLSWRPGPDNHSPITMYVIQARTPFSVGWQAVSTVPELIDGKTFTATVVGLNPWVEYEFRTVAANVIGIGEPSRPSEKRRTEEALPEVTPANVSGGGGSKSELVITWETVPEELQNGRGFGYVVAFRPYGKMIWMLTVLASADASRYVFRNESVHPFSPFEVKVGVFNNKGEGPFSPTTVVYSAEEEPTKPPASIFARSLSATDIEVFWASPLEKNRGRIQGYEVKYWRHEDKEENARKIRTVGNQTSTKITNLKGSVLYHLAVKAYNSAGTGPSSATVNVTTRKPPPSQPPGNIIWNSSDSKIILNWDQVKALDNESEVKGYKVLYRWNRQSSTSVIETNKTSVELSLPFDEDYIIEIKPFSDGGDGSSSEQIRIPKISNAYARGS
As to the method:
as §1, §2

B1: Anti-CNTN4 chicken-human chimeric IgG4 antibody AB1 (antibody, V domains shown)
VH: AVTLDESEGGLQTPGGALSLVCKASGFTFSSFNMFWVRQAPGKGLEYVAEISGGGGSTWYAPAVKGRATISRDNGQSTVRLQLNNLRAEDTGTYYCAKSADTWSYGAATIDAWGHGTEVIVSS
VL: ALTQPSSVSANLGETVKITCSGSSGSYGWYQQKSPGSAPVTLIYDNTNRPSDIPSRFSGSGSGSTGTLTITGVRAEDEAVYYCGGYDGSTDVFGAGTTLTVL
notes: Chicken variable domains of scFv AB1 on human IgG4 constant regions; It was purified on Kappa select resin, so the light chain is kappa; also called anti-CNTN4 antibody AB1; Anti-CNTN4 129 chimeric IgG4 antibody
B1: the binding result in experiment [1] is “no binding”; in experiment [2], “no binding”; in experiment [3], “no binding”; in experiment [4] it was “no binding”; in experiment [5] it was “binds”; in experiment [6], “binds”. For the same molecule, the binding result in experiment [7] was “binds”.

The values are drawn from patent US20260184774A1 (GENOME, published 2026).
